Experimental data as given in patent US20220389118A1 (Chugai, published 2022).

Experiments:
[1] = molecular target: T1, human FcγRIa extracellular domain with C-terminal His tag (human, UniProt P12314 16-292); assay: SPR (Biacore)
T1 construct: extracellular domain; also called FcgRIa

[2] = molecular target: T2, human FcγRIIb extracellular domain with C-terminal His tag (human, UniProt P31994 43-217); assay: SPR (Biacore)
T2 construct: extracellular domain; also called FcgRIIb
T2 sequence (looked up): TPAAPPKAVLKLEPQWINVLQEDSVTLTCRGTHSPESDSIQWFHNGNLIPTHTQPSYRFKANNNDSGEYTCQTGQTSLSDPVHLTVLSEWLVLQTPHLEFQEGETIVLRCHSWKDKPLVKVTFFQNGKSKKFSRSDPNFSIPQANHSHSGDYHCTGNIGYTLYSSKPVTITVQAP

[3] = molecular target: T3, human FcγRIIIa type V extracellular domain with C-terminal His tag (human, UniProt P08637 17-208); assay: SPR (Biacore)
T3 construct: extracellular domain; also called FcγRIIIaV; FcgRIIIaV

[4] = molecular target: T4, human FcγRIIa type H extracellular domain with C-terminal His tag (human, UniProt P12318 34-217); assay: SPR (Biacore)
T4 construct: extracellular domain; also called FcγRIIaH; FcgRIIaH
T4 sequence (looked up): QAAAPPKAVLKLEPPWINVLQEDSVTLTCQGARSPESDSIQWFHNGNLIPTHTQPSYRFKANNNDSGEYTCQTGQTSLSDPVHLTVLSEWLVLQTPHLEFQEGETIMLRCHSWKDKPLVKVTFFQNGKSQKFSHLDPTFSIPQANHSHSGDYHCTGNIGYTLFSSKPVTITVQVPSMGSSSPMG

[5] = molecular target: T5, soluble human IL-6 receptor (human, UniProt P08887 20-357); assay: SPR (Biacore T100), antibody captured on a Protein A/G chip (CM5), human IL-6 receptor as analyte, 1.2 mM CaCl2, pH 7.4, 37 °C
T5 construct: also called hsIL-6R
T5 sequence: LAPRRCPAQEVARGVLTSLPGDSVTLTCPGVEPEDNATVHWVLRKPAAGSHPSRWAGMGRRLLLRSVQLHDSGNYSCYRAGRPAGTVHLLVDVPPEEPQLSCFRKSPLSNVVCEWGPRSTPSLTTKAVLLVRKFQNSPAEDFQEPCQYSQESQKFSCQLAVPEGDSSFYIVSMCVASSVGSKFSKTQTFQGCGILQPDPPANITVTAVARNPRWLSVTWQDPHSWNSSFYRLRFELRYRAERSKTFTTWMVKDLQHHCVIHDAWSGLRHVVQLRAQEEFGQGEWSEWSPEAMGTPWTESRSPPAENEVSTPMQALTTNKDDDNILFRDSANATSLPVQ
Procedure: The interaction was analyzed in solutions at 1.2 mM and 3 μM calcium ion concentration, corresponding to high and low calcium ion concentration conditions, respectively. An appropriate amount of Protein A/G (Invitrogen) was immobilized onto a Sensor chip CM5 (GE Healthcare) by an amino coupling method, and antibodies of interest were captured onto the chip. The two types of running buffers used were: 20 mM ACES/150 mM NaCl/0.05% (w/v) Tween20/1.2 mM CaCl₂ (pH 7.4); and 20 mM ACES/150 mM NaCl/0.05% (w/v) Tween20/3 μM CaCl₂ (pH 7.4). These buffers were each used to dilute human IL-6 receptor. All measurements were carried out at 37° C.
Then, 10 mM glycine-HCl (pH 1.5) was injected at a flow rate of 30 μl/min for 30 seconds to regenerate the sensor chip.

T1 sequence (P12314 16-292): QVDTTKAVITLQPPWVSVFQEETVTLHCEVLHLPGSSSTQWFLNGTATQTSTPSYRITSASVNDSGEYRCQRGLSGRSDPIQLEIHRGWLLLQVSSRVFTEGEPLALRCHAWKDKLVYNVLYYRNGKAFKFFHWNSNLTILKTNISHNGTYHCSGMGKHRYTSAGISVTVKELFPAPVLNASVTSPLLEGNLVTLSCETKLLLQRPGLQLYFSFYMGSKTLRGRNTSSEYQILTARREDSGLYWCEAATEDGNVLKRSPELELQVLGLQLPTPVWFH
T3 sequence (P08637 17-208 F176V): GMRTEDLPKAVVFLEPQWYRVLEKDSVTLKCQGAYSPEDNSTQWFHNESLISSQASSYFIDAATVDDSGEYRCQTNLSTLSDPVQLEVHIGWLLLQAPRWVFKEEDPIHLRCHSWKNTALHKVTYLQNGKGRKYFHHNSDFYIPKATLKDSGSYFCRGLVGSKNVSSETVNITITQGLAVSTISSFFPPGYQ

| Binder | Kd [1] | Kd [2] | binding result [5] | also measured |
| --- | --- | --- | --- | --- |
| IL6R-2B261/IL6R-L (antibody, human IgG1, kappa, EU numbering; alterations on IL6R-B3; copies: 2 + 2) heavy: QVQLQESGPGLVKPSETLSLTCAVSGHSISHDHAWSWVRQPPGEGLEWIGFISYSGITNYNPSLQGRVTISRDNSKNTLYLQMNSLRAEDTAVYYCARSLARTTAMDYWGEGTLVTVSSASTKGPSVFPLAPSSKSTSGGTAALGCLVKDYFPEPVTVSWNSGALTSGVHTFPAVLQSSGLYSLSSVVTVPSSSLGTQTYICNVNHKPSNTKVDKKVEPKSCDKTHTCPPCPAPDLLGGDSVFLFPPKPKDTLMISRTPEVTCVVVDVSHEDPEVKFNWYVDGVEVHNAKTKPREEQDNSTYRVVSVLTVLHQDWLNGKEYKCKVSNKALPAPIEKTISKAKGQPREPQVYTLPPSRDELTKNQVSLTCLVKGFYPSDIAVEWESNGQPENNYKTTPPVLDSDGSFFLYSKLTVDKSRWQQGNVFSCSVMHEALHNHYTQESLSLSP light: not shown | 9 nM | 1000 nM |  |  |
| IL6R-BP148/IL6R-L (antibody, human IgG1, kappa, EU numbering; alterations on IL6R-B3; copies: 2 + 2) heavy: QVQLQESGPGLVKPSETLSLTCAVSGHSISHDHAWSWVRQPPGEGLEWIGFISYSGITNYNPSLQGRVTISRDNSKNTLYLQMNSLRAEDTAVYYCARSLARTTAMDYWGEGTLVTVSSASTKGPSVFPLAPSSKSTSGGTAALGCLVKDYFPEPVTVSWNSGALTSGVHTFPAVLQSSGLYSLSSVVTVPSSSLGTQTYICNVNHKPSNTKVDKKVEPKSCDKTHTCPPCPAPDYLGDDSVFLFPPKPKDTLMISRTPEVTCVVVDVSHEDPEVKFNWYVDGVEVHNAKTKPREEQYNSTYRVVSVLTVLHQDWLNGKEYKCKVSNAALPKPIEKTISKAKGQPREPQVYTLPPSRDELTKNQVSLTCLVKGFYPSDIAVEWESNGQPENNYKTTPPVLDSDGSFFLYSKLTVDKSRWQQGNVFSCSVMHEALHNHYTQESLSLSP light: not shown |  |  |  | Kd [3]: 30000 nM; Kd [4]: 7000 nM |
| IL6R-BP084/IL6R-L (antibody, human IgG1, kappa, EU numbering; alterations on IL6R-B3; copies: 2 + 2) heavy: QVQLQESGPGLVKPSETLSLTCAVSGHSISHDHAWSWVRQPPGEGLEWIGFISYSGITNYNPSLQGRVTISRDNSKNTLYLQMNSLRAEDTAVYYCARSLARTTAMDYWGEGTLVTVSSASTKGPSVFPLAPSSKSTSGGTAALGCLVKDYFPEPVTVSWNSGALTSGVHTFPAVLQSSGLYSLSSVVTVPSSSLGTQTYICNVNHKPSNTKVDKKVEPKSCDKTHTCPPCPAPELLGGDSVFLFPPKPKDTLMISRTPEVTCVVVDVSHEDPEVKFNWYVDGVEVHNAKTKPREEQYNSTYRVVSVLTVLHQDWLNGKEYKCKMSNKALPKPIEKTISKAKGQPREPQVYTLPPSRDELTKNQVSLTCLVKGFYPSDIAVEWESNGQPENNYKTTPPVLDSDGSFFLYSKLTVDKSRWQQGNVFSCSVMHEALHNHYTQESLSLSP light: not shown | 7 nM | 500 nM |  |  |
| IL6R-BP182/IL6R-L (antibody, human IgG1, kappa, EU numbering; alterations on IL6R-B3; copies: 2 + 2) heavy: QVQLQESGPGLVKPSETLSLTCAVSGHSISHDHAWSWVRQPPGEGLEWIGFISYSGITNYNPSLQGRVTISRDNSKNTLYLQMNSLRAEDTAVYYCARSLARTTAMDYWGEGTLVTVSSASTKGPSVFPLAPSSKSTSGGTAALGCLVKDYFPEPVTVSWNSGALTSGVHTFPAVLQSSGLYSLSSVVTVPSSSLGTQTYICNVNHKPSNTKVDKKVEPKSCDKTHTCPPCPAPDLLGGDSVFLFPPKPKDTLMISRTPEVTCVVVDVSHEDGEVKFNWYVDGVEVHNAKTKPREEQDNSTYRVVSVLTVLHQDWLNGKEYKCKVSNKALPKPIEKTISKAKGQPREPQVYTLPPSRDELTKNQVSLTCLVKGFYPSDIAVEWESNGQPENNYKTTPPVLDSDGSFFLYSKLTVDKSRWQQGNVFSCSVMHEALHNHYTQESLSLSP light: not shown | 10 nM |  |  |  |
| IL6R-BP180/IL6R-L (antibody, human IgG1, kappa, EU numbering; alterations on IL6R-B3; also called IL6R-BF180/IL6R-L; copies: 2 + 2) heavy: QVQLQESGPGLVKPSETLSLTCAVSGHSISHDHAWSWVRQPPGEGLEWIGFISYSGITNYNPSLQGRVTISRDNSKNTLYLQMNSLRAEDTAVYYCARSLARTTAMDYWGEGTLVTVSSASTKGPSVFPLAPSSKSTSGGTAALGCLVKDYFPEPVTVSWNSGALTSGVHTFPAVLQSSGLYSLSSVVTVPSSSLGTQTYICNVNHKPSNTKVDKKVEPKSCDKTHTCPPCPAPELLGDDSVFLFPPKPKDTLMISRTPEVTCVVVDVSHEDGEVKFNWYVDGVEVHNAKTKPREEQYNSTYRVVSVLTVLHQDWLNGKEYKCKVSNKALPKPIEKTISKAKGQPREPQVYTLPPSRDELTKNQVSLTCLVKGFYPSDIAVEWESNGQPENNYKTTPPVLDSDGSFFLYSKLTVDKSRWQQGNVFSCSVMHEALHNHYTQESLSLSP light: not shown | 98 nM |  |  | Kd [3]: 70000 nM |
| IL6R-BP130/IL6R-L (antibody, human IgG1, kappa, EU numbering; alterations on IL6R-B3; copies: 2 + 2) heavy: QVQLQESGPGLVKPSETLSLTCAVSGHSISHDHAWSWVRQPPGEGLEWIGFISYSGITNYNPSLQGRVTISRDNSKNTLYLQMNSLRAEDTAVYYCARSLARTTAMDYWGEGTLVTVSSASTKGPSVFPLAPSSKSTSGGTAALGCLVKDYFPEPVTVSWNSGALTSGVHTFPAVLQSSGLYSLSSVVTVPSSSLGTQTYICNVNHKPSNTKVDKKVEPKSCDKTHTCPPCPAPDLLGGDSVFLFPPKPKDTLMISRTPEVTCVVVDVSHEDPEVKFNWYVDGVEVHNAKTKPREEQYNSTYRVVSVLTVLHQDWLNGKEYKCKMSNKALPKPIEKTISKAKGQPREPQVYTLPPSRDELTKNQVSLTCLVKGFYPSDIAVEWESNGQPENNYKTTPPVLDSDGSFFLYSKLTVDKSRWQQGNVFSCSVMHEALHNHYTQESLSLSP light: not shown |  | 300 nM |  |  |
| IL6R-BP151/IL6R-L (antibody, human IgG1, kappa, EU numbering; alterations on IL6R-B3; copies: 2 + 2) heavy: QVQLQESGPGLVKPSETLSLTCAVSGHSISHDHAWSWVRQPPGEGLEWIGFISYSGITNYNPSLQGRVTISRDNSKNTLYLQMNSLRAEDTAVYYCARSLARTTAMDYWGEGTLVTVSSASTKGPSVFPLAPSSKSTSGGTAALGCLVKDYFPEPVTVSWNSGALTSGVHTFPAVLQSSGLYSLSSVVTVPSSSLGTQTYICNVNHKPSNTKVDKKVEPKSCDKTHTCPPCPAPDYLGDDSVFLFPPKPKDTLMISRTPEVTCVVVDVSHEDPEVKFNWYVDGVEVHNAKTKPREEQYNSTYRVVSVLTVLHQDWLNGKEYKCKVSNAALPRPIEKTISKAKGQPREPQVYTLPPSRDELTKNQVSLTCLVKGFYPSDIAVEWESNGQPENNYKTTPPVLDSDGSFFLYSKLTVDKSRWQQGNVFSCSVMHEALHNHYTQESLSLSP light: not shown |  | 40 nM |  |  |
| tocilizumab (antibody, human IgG1, kappa, also called anti-IL-6R antibody (tocilizumab)) heavy: not shown light: not shown |  |  | binds |  |
| 6RC1IgG_012 (antibody, V domains shown) VH: QVQLVQSGAEVKKPGASVKVSCKASGYTFTSYGISWVRQAPGQGLEWMGWISAYNGNTNYAQKLQGRVTMTTDTSTSTAYMELRSLRSDDTAVYYCARATYYYDSSAPAFDIWGQGTMVTVSS VL: DIQMTQSPSSLSASVGDRVTITCRASQSIEDDLAWYQQKPGKAPKLLIYEASTLQSGVPSRFSGSGSGTDFTLTISSLQPEDFATYYCQQHDDSPLTFGQGTKVEIKR |  |  | binds |  |
| 6RC1IgG_010 (antibody, V domains shown) VH: QVQLVQSGAEVKKPGSSVKVSCKASGGTFSSYAISWVRQAPGQGLEWMGGIIPIFGTANYAQKFQGRVTITADESTSTAYMELSSLRSEDTAVYYCARAAFLEWPIWGSEYFQHWGQGTLVTVSS VL: DIQMTQSPSSLSASVGDRVTITCRASQSIEDDLAWYQQKPGKAPKLLIYHASSLQSGVPSRFSGSGSGTDFTLTISSLQPEDFATYYCQQRDSYPLTFGQGTKVEIKR |  |  | binds |  |
| 6RC1IgG_019 (antibody, V domains shown) VH: EVQLVQSGAEVKKPGSSVKVSCKASGGTFSSYAISWVRQAPGQGLEWMGGIIPIFGTANYAQKFQGRVTITADESTSTAYMELSSLRSEDTAVYYCARDRGSGFNWGNYAFDIWGQGFSVTVSS VL: DIQMTQSPSSLSASVGDRVTITCRASQSIEDDLAWYQQKPGKAPKLLIYEASNLQSGVPSRFSGSGSGTDFTLTISSLQPEDFATYYCQQYDRYPYTFGQGTKVEIKR |  |  | binds |  |
